From paper PMC8175363

Target: unspliced Pyrococcus horikoshii PolII intein fusion protein NIHPho (N-extein M-H-A-A-K-R-N, 166-residue intein, C-extein C-D-G-D-E-D-His6) (Pyrococcus horikoshii) (UniProt O57861)
Assay: crystal structure; sitting drop vapour diffusion; protein about 3 mg/ml in 20 mM Tris pH 8.0, 100 mM NaCl; reservoir 0.1 M Tris HCl pH 8.5, 1.8 M ammonium sulfate, 0.1 M sodium chloride, 1% glycerol; data at 100 K; phased by SAD with the Se-Met derivative

“unspliced Pyrococcus horikoshii PolII intein fusion protein NIHPho (N-extein M-H-A-A-K-R-N, 166-residue intein, C-extein C-D-G-D-E-D-His6) (from UniProt O57861 945-1123) (domain or fragment)” showed a stoichiometry N of 2.
